This note sets out measurements from patent publication US20230322924A1 (Janssen / Centocor, published 2023).

The target in assay [1] is T1, chimpanzee PSMA, full length, on HEK293F cells (Pan troglodytes (chimpanzee)).
T1 construct: stably transfected HEK293F cells; also called chimp PSMA; chimp-PSMA HEK
T1 chain: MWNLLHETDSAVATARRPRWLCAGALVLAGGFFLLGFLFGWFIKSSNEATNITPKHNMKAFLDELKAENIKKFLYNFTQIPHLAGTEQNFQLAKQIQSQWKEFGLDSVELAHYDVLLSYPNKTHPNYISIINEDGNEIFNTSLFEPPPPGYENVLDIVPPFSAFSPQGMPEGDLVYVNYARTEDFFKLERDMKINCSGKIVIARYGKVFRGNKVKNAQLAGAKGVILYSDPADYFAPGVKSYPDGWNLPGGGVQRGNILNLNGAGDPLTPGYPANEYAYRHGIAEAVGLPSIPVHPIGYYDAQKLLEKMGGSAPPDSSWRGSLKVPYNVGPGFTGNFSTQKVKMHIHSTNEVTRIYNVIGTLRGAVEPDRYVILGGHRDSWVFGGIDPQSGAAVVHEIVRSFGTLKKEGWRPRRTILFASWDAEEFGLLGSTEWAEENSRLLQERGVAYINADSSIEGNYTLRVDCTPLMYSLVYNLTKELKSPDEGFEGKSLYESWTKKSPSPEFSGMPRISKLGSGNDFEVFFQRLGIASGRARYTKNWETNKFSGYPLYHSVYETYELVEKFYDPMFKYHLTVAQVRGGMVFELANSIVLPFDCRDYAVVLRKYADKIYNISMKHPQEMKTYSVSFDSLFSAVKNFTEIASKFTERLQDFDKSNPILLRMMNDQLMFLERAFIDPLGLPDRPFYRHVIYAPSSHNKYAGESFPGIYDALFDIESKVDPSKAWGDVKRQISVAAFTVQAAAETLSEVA
Briefly: flow cytometry, Fab supernatant, chimp PSMA HEK cells. As to the method:
(§1) Individual Fab clones were isolated from the round 3 output of all panning experiments following pIX excision. Fab clones were tested for binding to chimp and cyno PSMA expressing HEK cells, as well as to human PSMA on LNCaP cells. Briefly, PSMA expressing cells were aliquoted into a V-bottom plate (CoStar 3357) at a density of 200,000 per well and incubated with (100 μl) supernatants expressing Fab fragments for 1 hour on ice. Cells were washed twice with PBS containing 2% FBS, and stained with a mouse anti-human kappa-RPE antibody (Life Technologies cat #MH10514) for 1 hour on ice. Cells were washed twice with PBS containing 2% FBS and resuspended in […] of the same wash buffer. Plates were read on a BD FACS Array flow cytometer. FACS data was analyzed in FlowJo software by live gating the healthy population of cells using forward scatter and side scatter, and then analyzing the cells within this gate for PE staining. Mean fluorescence intensity (MFI) was calculated and exported into Microsoft Excel. […] Fabs were sequenced and moved forward for cloning into mammalian expression vector for rescreening. True positives were selected from the binding of mammalian cell expressed Fab supernatants to PSMA-expressing cell lines.
(§2) Confirmation of mammalian expressed Fab supernatants was performed using the whole cell binding assay described previously. Binding of Fabs to human PSMA (LNCaP), chimpanzee, and cynomolgous monkey cells was tested, as well as counter screening for no binding to the parental HEK cell line.

The target in assay [2] is T2, Cynomolgous monkey PSMA, full length, on HEK293F cells (Macaca fascicularis (cynomolgus monkey)).
T2 construct: stably transfected HEK293F cells; also called cyno PSMA; Cyno-PSMA HEK
T2 chain: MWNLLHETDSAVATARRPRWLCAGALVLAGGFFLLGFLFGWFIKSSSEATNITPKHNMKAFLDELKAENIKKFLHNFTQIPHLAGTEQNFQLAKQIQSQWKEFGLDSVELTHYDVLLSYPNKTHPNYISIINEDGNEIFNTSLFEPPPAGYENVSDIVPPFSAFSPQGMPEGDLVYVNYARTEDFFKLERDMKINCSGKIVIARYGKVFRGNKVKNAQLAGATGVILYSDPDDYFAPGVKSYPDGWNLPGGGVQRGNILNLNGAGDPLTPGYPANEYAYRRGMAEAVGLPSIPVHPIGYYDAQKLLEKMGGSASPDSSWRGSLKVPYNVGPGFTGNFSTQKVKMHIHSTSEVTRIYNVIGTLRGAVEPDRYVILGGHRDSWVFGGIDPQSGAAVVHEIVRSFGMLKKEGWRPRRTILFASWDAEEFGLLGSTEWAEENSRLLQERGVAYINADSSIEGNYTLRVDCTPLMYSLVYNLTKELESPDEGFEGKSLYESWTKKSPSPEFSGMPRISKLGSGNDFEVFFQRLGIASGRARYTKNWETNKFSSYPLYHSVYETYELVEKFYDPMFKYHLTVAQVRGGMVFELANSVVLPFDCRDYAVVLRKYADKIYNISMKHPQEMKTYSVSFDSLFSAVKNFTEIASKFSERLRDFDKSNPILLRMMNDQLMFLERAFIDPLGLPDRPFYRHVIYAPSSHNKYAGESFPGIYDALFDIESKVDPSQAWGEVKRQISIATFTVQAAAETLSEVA
Briefly: flow cytometry, Fab supernatant, cyno PSMA HEK cells. As to the method: as §1, §2
On the technique in general: Flow cytometry measures light scatter and fluorescence of single cells or particles in a stream.

The target of assay [3] is T3, human PSMA on LNCaP cells (human, UniProt Q04609 1-750).
T3 construct: PSMA of the LNCaP prostate cancer cell line itself
T3 sequence (Q04609 whole entry): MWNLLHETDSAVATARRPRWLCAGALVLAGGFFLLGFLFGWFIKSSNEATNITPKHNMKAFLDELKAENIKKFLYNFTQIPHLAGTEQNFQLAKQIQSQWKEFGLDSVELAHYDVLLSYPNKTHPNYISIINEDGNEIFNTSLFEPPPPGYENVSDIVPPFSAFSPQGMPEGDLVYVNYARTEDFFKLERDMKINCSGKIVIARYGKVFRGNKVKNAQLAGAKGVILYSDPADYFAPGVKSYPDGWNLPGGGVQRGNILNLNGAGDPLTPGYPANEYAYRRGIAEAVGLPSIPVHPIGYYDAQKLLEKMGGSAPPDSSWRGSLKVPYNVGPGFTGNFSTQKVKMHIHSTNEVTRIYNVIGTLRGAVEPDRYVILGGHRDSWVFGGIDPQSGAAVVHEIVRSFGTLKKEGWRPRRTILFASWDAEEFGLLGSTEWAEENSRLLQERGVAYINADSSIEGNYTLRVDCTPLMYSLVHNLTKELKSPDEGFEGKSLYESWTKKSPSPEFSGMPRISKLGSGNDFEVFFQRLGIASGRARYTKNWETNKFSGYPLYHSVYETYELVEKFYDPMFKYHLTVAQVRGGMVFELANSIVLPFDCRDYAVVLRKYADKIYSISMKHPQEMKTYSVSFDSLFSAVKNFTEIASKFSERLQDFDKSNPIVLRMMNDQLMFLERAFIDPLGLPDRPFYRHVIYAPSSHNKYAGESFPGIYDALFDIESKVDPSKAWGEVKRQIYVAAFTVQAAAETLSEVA
Put plainly: flow cytometry, Fab supernatant, LNCaP cells. The procedure:
as §1, with “A cell-based binding assay was designed to assess the binding capabilities of individual Fab-his fusions from E. coli supernatants to PSMA-expressing cells. Individual” for “Individual”
as §2

The target in another assay is Human CD33 full length (human, UniProt P20138 18-364). Put plainly: cell-based or functional assay.
Human CD33 full length, sequence (P20138 18-364 limits assumed): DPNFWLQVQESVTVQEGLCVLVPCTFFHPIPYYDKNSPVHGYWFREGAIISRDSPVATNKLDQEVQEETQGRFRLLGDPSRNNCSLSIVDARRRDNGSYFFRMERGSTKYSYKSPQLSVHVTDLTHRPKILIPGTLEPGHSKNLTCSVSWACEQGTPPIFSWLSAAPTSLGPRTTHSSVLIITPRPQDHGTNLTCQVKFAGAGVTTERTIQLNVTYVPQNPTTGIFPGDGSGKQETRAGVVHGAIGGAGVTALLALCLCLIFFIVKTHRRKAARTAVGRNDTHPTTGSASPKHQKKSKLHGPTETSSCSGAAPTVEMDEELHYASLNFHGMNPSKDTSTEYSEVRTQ

B1: PSMB84 (Fab, V domains shown)
VH: EVQLLESGGGLVQPGGSLRLSCAASGFTFDSDWMSWVRQAPGKGLEWVSAISGNGGSTEYADSVKGRFTISRDNSKNTLYLQMNSLRAEDTAVYYCARDPYYYYDGDSYYGMDVWGQGTLVTVSS
VL: not shown
notes: mammalian-expressed Fab supernatant (huG1 Fab and human kappa vectors); also called PSMM85
Consider B1, for which the Geo-MFI in assay [1] turned out to be 729; in assay [2] it was 750; in assay [3], 192.

B2: C3CB11 (bispecific antibody, IgG4, V domains shown)
VH 1: QVQLVESGGGVVQPGRSLRLSCVASGFTFSSYGMHWVRQAPGKGLEWVAVISYDGSNKYYADSVKGRFTISRDNSKNTLYLQMNSLRAEGTAVYYCAKDFRSFDWLPPDSASYHGMDVWGQGTTVTVSS
VL 1: SYELTQPPSVSVSPGQTASITCSGDKLGDKYACWYQQKPGQSPVLVIYQDGKRPSGIPERFSGSNFGNKATLTISGTQAMDEADYYCQAWDRNTVVFGGGTKLTVL
VH 2: EVQLVESGGGLVQPGGSLRLSCAASGFTFNTYAMNWVRQAPGKGLEWVARIRSKYNNYATYYAASVKGRFTISRDDSKNSLYLQMNSLKTEDTAVYYCARHGNFGNSYVSWFAYWGQGTLVTVSS
VL 2: QTVVTQEPSLTVSPGGTVTLTCRSSTGAVTTSNYANWVQQKPGQAPRGLIGGTNKRAPGTPARFSGSLLGGKAALTLSGVQPEDEAEYYCALWYSNLWVFGGGTKLTVL
B2: the “Primary AML Cell Killing EC50” value with Human CD33 full length was determined as 3.96 nM.

B3: PSMB18 (Fab, V domains shown)
VH: EVQLVQSGAEVKKPGESLKISCKGSGYSFTSYWIGWVRQMPGKGLEWMGIIYPGDSDTRYSPSFQGQVTISADKSISTAYLQWSSLKASDTAMYYCARAYHYSKGLDYWGQGTLVTVSS
VL: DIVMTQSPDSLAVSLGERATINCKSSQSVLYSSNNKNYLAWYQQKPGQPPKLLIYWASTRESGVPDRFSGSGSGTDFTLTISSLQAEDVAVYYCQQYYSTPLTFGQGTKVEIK
notes: mammalian-expressed Fab supernatant (huG1 Fab and human kappa vectors); also called PSMM18
On to B3, for which the Geo-MFI in assay [1] was found to be 439; in assay [2] it was 696.

B4: PSMB25 (Fab, V domains shown)
VH: EVQLVQSGAEVKKPGESLKISCKGSGYSFTSYWIGWVRQMPGKGLEWMGIIYPGDSDTRYSPSFQGQVTISADKSISTAYLQWSSLKASDTAMYYCARGWAYDRGLDYWGQGTLVTVSS
VL: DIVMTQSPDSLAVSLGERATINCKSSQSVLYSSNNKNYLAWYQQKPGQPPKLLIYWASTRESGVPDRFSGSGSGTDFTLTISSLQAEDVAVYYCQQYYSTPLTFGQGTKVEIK
notes: mammalian-expressed Fab supernatant (huG1 Fab and human kappa vectors); also called PSMM25
Take B4: the figures for the Geo-MFI in assay [1], in assay [2] and in assay [3] were 11.3, 15.2 and 16.9, respectively.

B5: PSMB86 (Fab, V domains shown)
VH: QVQLVQSGAEVKKPGSSVKVSCKASGGTFKSYDISWVRQAPGQGLEWMGGIIPIEGTANYAQKFQGRVTITADESTSTAYMELSSLRSEDTAVYYCARDYPAGYGFDYWGQGTLVTVSS
VL: not shown
notes: mammalian-expressed Fab supernatant (huG1 Fab and human kappa vectors); also called PSMM87
As to B5, the Geo-MFI in assay [1] worked out at 176; in assay [2] it was 224; in assay [3], 31.7.

B6: PSMB51 (Fab, V domains shown)
VH: QVQLVQSGAEVKKPGSSVKVSCKASGGTFSSYAISWVRQAPGQGLEWMGWIIPYNGNANYAQKFQGRVTITADESTSTAYMELSSLRSEDTAVYYCARVNSAALVWERLDYWGQGTLVTVSS
VL: DIQMTQSPSSLSASVGDRVTITCRASQSIDRWLNWYQQKPGKAPKLLIYAASSLQSGVPSRFSGSGSGTDFTLTISSLQPEDFATYYCQQSPRYPLTFGQGTKVEIK
notes: mammalian-expressed Fab supernatant (huG1 Fab and human kappa vectors); also called PSMM52
B6: the Geo-MFI in assay [1] turned out to be 231; in assay [2] it was 285; in assay [3], 41.5.

B7: PSMB109 (Fab, V domains shown)
VH: QVQLVQSGAEVKKPGSSVKVSCKASGGTFSSYAISWVRQAPGQGLEWMGWISPYNGNANYAQKFQGRVTITADESTSTAYMELSSLRSEDTAVYYCARVNSAALVWERLDYWGQGTLVTVSS
VL: DIQMTQSPSSLSASVGDRVTITCRASQSIDRWLNWYQQKPGKAPKLLIYAASSLQSGVPSRFSGSGSGTDFTLTISSLQPEDFATYYCQQSPRYPLTFGQGTKVEIK
notes: mammalian-expressed Fab supernatant (huG1 Fab and human kappa vectors); also called PSMM110
B7: the figures for the Geo-MFI in assay [1], in assay [2] and in assay [3] were 326, 321 and 34.9, respectively.

B8: PSMB56 (Fab, V domains shown)
VH: QVQLVQSGAEVKKPGSSVKVSCKASGGTFSSYAISWVRQAPGQGLEWMGWISPYNGNANYAQKFQGRVTITADESTSTAYMELSSLRSEDTAVYYCARDSDRSYNLDYWGQGTLVTVSS
VL: not shown
notes: mammalian-expressed Fab supernatant (huG1 Fab and human kappa vectors); also called PSMM57
B8: the values for the Geo-MFI in assay [1], in assay [2] and in assay [3] were 34.7, 95.6 and 24.5, respectively.

B9: PSMB49 (Fab, V domains shown)
VH: QVQLVQSGAEVKKPGSSVKVSCKASGGTFSSYAISWVRQAPGQGLEWMGGIIPIFGTANYAQKFQGRVTITADESTSTAYMELSSLRSEDTAVYYCARASRVWHASYGYLDYWGQGTLVTVSS
VL: EIVLTQSPATLSLSPGERATLSCRASQSVSKWLAWYQQKPGQAPRLLIYDASNRATGIPARFSGSGSGTDFTLTISSLEPEDFAVYYCQQRFTAPWTFGQGTKVEIK
notes: mammalian-expressed Fab supernatant (huG1 Fab and human kappa vectors); also called PSMM50
Take B9: the values for the Geo-MFI in assay [1], in assay [2] and in assay [3] were 22, 51.6 and 3.22, respectively.

B10: PSMB55 (Fab, V domains shown)
VH: EVQLVQSGAEVKKPGESLKISCKGSGYSFTSYWIGWVRQMPGKGLEWMGIIYPGDSDTRYSPSFQGQVTISADKSISTAYLQWSSLKASDTAMYYCARGLPIWYLDYWGQGTLVTVSS
VL: EIVLTQSPATLSLSPGERATLSCRASQSVASDLAWYQQKPGQAPRLLIYFASNRATGIPARFSGSGSGTDFTLTISSLEPEDFAVYYCQQSITWPFTFGQGTKVEIK
notes: mammalian-expressed Fab supernatant (huG1 Fab and human kappa vectors); also called PSMM56
With B10, the Geo-MFI in assay [1] is 180; in assay [2], 226; in assay [3] it was 17.2.

B11: PSMB58 (Fab, V domains shown)
VH: EVQLVQSGAEVKKPGESLKISCKGSGYSFTSYWISWVRQMPGKGLEWMGIIYPGDSYTRYSPSFQGQVTISADKSISTAYLQWSSLKASDTAMYYCARDYEWELFDSRLDYWGQGTLVTVSS
VL: not shown
notes: mammalian-expressed Fab supernatant (huG1 Fab and human kappa vectors); also called PSMM59
For B11, the Geo-MFI in assay [1] worked out at 192; in assay [2], 121; in assay [3] it was 25.3.

B12: PSMB80 (Fab, V domains shown)
VH: QVQLVQSGAEVKKPGSSVKVSCKASGGTFDDYAISWVRQAPGQGLEWMGRIDPIEGTANYAQKFQGRVTITADESTSTAYMELSSLRSEDTAVYYCARDRYYYDGVYWYSDYFDYWGQGTLVTVS
VL: not shown
notes: mammalian-expressed Fab supernatant (huG1 Fab and human kappa vectors); also called PSMM81
Take B12: the Geo-MFI in assay [1] came to 18.6; in assay [2], 19.6; in assay [3], 20.9.
